# Results reported in patent US6495346.
# Tests used:
# Experiment in all cases: cell-based or functional assay
# LCK-Gal4 = LCK-Gal4 (UniProt P04386)
# wt-fos-Gal4 (SV40) = molecular target: wt-fos-Gal4 (SV40)
# m-fos-Gal4 (SV40) = molecular target: m-fos-Gal4 (SV40)
# Sequence of m-jun-VP16 (P06492 411-455, tags or fused parts left off): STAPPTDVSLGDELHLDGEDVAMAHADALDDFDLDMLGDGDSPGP
# Sequence of CD4-VP16 (P06492 whole entry): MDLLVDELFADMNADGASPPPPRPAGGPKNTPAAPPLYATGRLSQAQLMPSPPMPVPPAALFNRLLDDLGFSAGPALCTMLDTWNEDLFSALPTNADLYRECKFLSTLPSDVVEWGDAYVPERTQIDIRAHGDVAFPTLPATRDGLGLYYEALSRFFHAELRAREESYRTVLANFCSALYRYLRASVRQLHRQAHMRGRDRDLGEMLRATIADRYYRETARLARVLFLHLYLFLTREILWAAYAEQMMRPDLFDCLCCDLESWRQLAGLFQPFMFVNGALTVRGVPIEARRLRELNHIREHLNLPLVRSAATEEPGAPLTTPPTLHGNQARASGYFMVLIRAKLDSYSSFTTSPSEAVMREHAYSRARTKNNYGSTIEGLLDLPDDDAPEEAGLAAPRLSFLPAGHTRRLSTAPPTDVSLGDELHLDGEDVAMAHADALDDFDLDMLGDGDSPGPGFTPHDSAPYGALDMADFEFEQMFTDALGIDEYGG
# Sequence of wt-jun-VP16 (P06492 411-455, tags or fused parts left off): as the sequence (P06492 411-455, tags or fused parts left off) above
substance,measurement,setting,value
CD4-VP16 (from UniProt P06492 406-488),"Luciferase values (RLU), MeWo cells, G0/G1-synchronized cells, 10xBS Gal4-SV40 promoter (Tyr-LCK-Gal4-CycACD4-VP16)",LCK-Gal4,5990 RLU
same,"Luciferase values (RLU), MeWo cells, proliferating cells, 10xBS Gal4-SV40 promoter (Tyr-LCK-Gal4-CycACD4-VP16)",LCK-Gal4,72400 RLU
m-jun-VP16 (from UniProt P06492 411-455; P05412 276-312),"Luciferase values (RLU), MeWo cells, G0/G1-synchronized cells, 10xBS Gal4-SV40 promoter",wt-fos-Gal4 (SV40),224 RLU
same,"Luciferase values (RLU), MeWo cells, proliferating cells, 10xBS Gal4-SV40 promoter",wt-fos-Gal4 (SV40),290 RLU
same,"Luciferase values (RLU), MeWo cells, G0/G1-synchronized cells, 10xBS Gal4-SV40 promoter",m-fos-Gal4 (SV40),271 RLU
same,"Luciferase values (RLU), MeWo cells, G0/G1-synchronized cells, 10xBS Gal4-SV40 promoter, both subunits on one plasmid (Tyr-m-fos-CycA-m-jun)",m-fos-Gal4 (SV40),12700 RLU
same,"Luciferase values (RLU), MeWo cells, proliferating cells, 10xBS Gal4-SV40 promoter",m-fos-Gal4 (SV40),18300 RLU
same,"Luciferase values (RLU), MeWo cells, proliferating cells, 10xBS Gal4-SV40 promoter, both subunits on one plasmid (Tyr-m-fos-CycA-m-jun)",m-fos-Gal4 (SV40),1.02e+06 RLU
wt-jun-VP16 (from UniProt P06492 411-455; P05412 276-312),"Luciferase values (RLU), MeWo cells, G0/G1-synchronized cells, 10xBS Gal4-SV40 promoter",m-fos-Gal4 (SV40),283 RLU
same,"Luciferase values (RLU), MeWo cells, proliferating cells, 10xBS Gal4-SV40 promoter",m-fos-Gal4 (SV40),284 RLU
